Tests used:
[1] = biological target: Ssr1698 (c-type heme oxygenase, cHO), purified tag-less apo-Ssr1698 (Synechocystis sp. strain PCC 6803); assay: SEC; Superdex 200 Increase 10/300GL equilibrated with PBS buffer (pH 7.4); tag-less Ssr1698 after removal of GST by Factor Xa
[2] = biological target: Ssr1698 (c-type heme oxygenase, cHO), purified tag-less apo-Ssr1698 (Synechocystis sp. strain PCC 6803); assay: native gel or EMSA; clear native-PAGE (CN-PAGE) of purified tag-less Ssr1698; 5-12.5% acrylamide gradient gel, 0.01% DM and 0.025% deoxycholate in the cathode buffer, 4 °C
Ssr1698 (cHO) [3] = biological target: T1, Ssr1698 (cHO) (Synechocystis sp. PCC 6803, UniProt P73129); assay: HPLC and LC-MS of reaction product; type: biochemical; conditions: substrate MP-11 (c-type heme), 10 mM ascorbic acid, 2 µM catalase, PBS pH 7.4, 2 h
T1 construct: full-length 96-residue protein; GST fusion from pGEX-5X-1 (BamHI/XhoI) in E. coli BL21(DE3) pLysS, GST tag removed by Factor Xa, SEC; dimer
T1 sequence (P73129 1-96): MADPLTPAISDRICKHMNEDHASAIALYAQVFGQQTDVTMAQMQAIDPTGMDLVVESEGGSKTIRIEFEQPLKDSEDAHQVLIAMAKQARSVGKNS

Ssr1698 (cHO) [4] = biological target: T1, Ssr1698 (cHO); assay: UV-visible assay of MP-11 (c-type heme) degradation with added biliverdin IXα; type: biochemical; conditions: product inhibition; substrate MP-11, ascorbate, catalase, PBS pH 7.4

Molecule	stoichiometry N [1]	stoichiometry N [2]	HPLC and LC-MS of reaction product (Ssr1698 (cHO) [3])	suppression of c-type heme degradation (Ssr1698 (cHO) [4])
Ssr1698 (c-type heme oxygenase, cHO), purified tag-less apo-Ssr1698 (enzyme)	2	2	–	–
C=CC1=C(C)C(=Cc2[nH]c(C=C3N=C(C=C4NC(=O)C(C)=C4C=C)C(C)=C3CCC(=O)O)c(CCC(=O)O)c2C)NC1=O [biliverdin IXα]	–	–	biliverdin IXα molecule, 11-amino acid peptide and free iron were identified in the reaction product	degradation of c-type heme is significantly suppressed after the addition of biliverdin IXα

From paper PMC10504260, “Identification of a c-type heme oxygenase and its function during acclimation of cyanobacteria to nitrogen fluctuations” (Communications Biology, 2023)
